The text below walks through data of patent US20170088610A1 (RINAT NEUROSCIENCE, published 2017).

Read-outs that look alike come from different tables or passages of the source.

In experiment [1] the target is T1, human nerve growth factor (human, UniProt P01138 122-241).
T1 construct: Immobilised on CM5 chips for BIAcore, soluble in neuron survival assays; also called human NGF; hNGF
Briefly: BIAcore SPR screen, Fab over immobilised human NGF. The procedure: (§1) A screening BIAcore assay was optimized to determine the affinity of Fab clones from libraries. Supernatants of small culture lysates were injected at […] for 2 min. Dissociation times of 10 to 15 minutes were used for determination of a single exponential dissociation rate (koff) using BIAevaluation software. […] Clones showing improved (slower) koff values were expressed at large scale and full kinetic parameters, kₒₙ and koff, were determined on purified protein.
Background: SPR reads the build-up and loss of mass on a sensor chip optically.

In experiment [2] the target is T1, human nerve growth factor. Put plainly: BIAcore SPR, purified Fab over immobilised human NGF (100 RU); purified Fab E3, 100 RU NGF on chip. The procedure: (§2) Affinities of anti-NGF Fabs and monoclonal antibodies were determined using the BIAcore3000™ surface plasmon resonance (SPR) system (BIAcore, INC, Piscaway N.J.). CM5 chips were activated with N-ethyl-N′-(3-dimethylaminopropyl)-carbodiinide hydrochloride (EDC) and N-hydroxysuccinimide (NETS) according to the supplier's instructions. Human NGF was diluted into 10 mM sodium acetate pH 4.0 and injected over the activated chip at a concentration of 0.005 mg/mL. Using variable flow time across the individual chip channels, two ranges of antigen density were achieved: 100-200 response units (RU) for detailed kinetic studies and 500-600 RU for screening assays. The chip was blocked with ethanolamine. […] HBS-EP buffer (0.01M HEPES, pH 7.4, 0.15 NaCl, 3 mM EDTA, 0.005% Surfactant […]) was used as running buffer for all the BIAcore assays.
(§3) Briefly, several concentrations of antibodies (Fabs) were injected for 2 minutes onto a CM5 chip with 100 RU of immobilized human NGF on it, and permitted to dissociate for 1800 seconds. […] Data was analyzed using BIAevaluation software following the manufacturer's instructions.

The target in experiment [3] is T2, rat nerve growth factor (rat, UniProt P25427 122-241). Put plainly: cell-based or functional assay.
Experiment [4] deals with T1, human nerve growth factor. Briefly: cell-based or functional assay.
The target in experiment [5] is T1, human nerve growth factor. Briefly: BIAcore SPR, Fabs over immobilised human NGF. The procedure: as §2, §3
Experiment [6] addresses T1, human nerve growth factor. Briefly: cell-based or functional assay. This is another data set of the same source.
In experiment [7] the target is T2, rat nerve growth factor. Put plainly: cell-based or functional assay. The source holds these as a separate data set.
Experiment [8] addresses T1, human nerve growth factor. Put plainly: BIAcore SPR, Fab over immobilised human NGF (100 RU). The procedure:
as §2, §3

Experiment [9] addresses T1, human nerve growth factor. Put plainly: BIAcore SPR screen, Fab over immobilised human NGF; KD calculated from koff with kon 4e4 M-1s-1. The procedure:
as §1

T2 sequence (P25427 122-241 limits assumed): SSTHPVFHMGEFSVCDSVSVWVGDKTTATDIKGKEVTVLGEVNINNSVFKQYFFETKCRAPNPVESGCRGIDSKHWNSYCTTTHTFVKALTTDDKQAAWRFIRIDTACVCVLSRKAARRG
T1 sequence (P01138 122-241 limits assumed): as the sequence (P25427 122-241 limits assumed) above, with T3S, V6I, M9R, T37M, A60D, E65D, T92M, D94G, A117V, G120A counted along it

B1: antibody E3 (Fab) (Fab, V domains shown)
VH: QVQLQESGPGLVKPSETLSLTCTVSGFSLIGYDLNWIRQPPGKGLEWIGIIWGDGTTDYNSAVKSRVTISKDTSKNQFSLKLSSVTAADTAVYYCARGGYWYATSYYFDYWGQGTLVTVS
VL: DIQMTQSPSSLSASVGDRVTITCRASQSISNNLNWYQQKPGKAPKLLIYYTSRFHSGVPSRFSGSGSGTDFTFTISSLQPEDIATYYCQQEHTLPYTFGQGTKLEIKR
notes: Fab with human IgG2 CH1 and human kappa constant domain; His tag at the heavy chain C terminus in the E. coli format; also called Fab E3; 3E Fab
For orientation: koff means a measure of how fast the partners let go of each other. Usually Kd stands for the free concentration of one partner at which half of the binding sites on the other are occupied at equilibrium, for simple one-to-one binding. As usually defined, the kon is a measure of how fast the partners come together. Low values mean slow association, high ones fast association. With B1, the koff in experiment [1] was 1.2e-05 s⁻¹; in [2] it was about 4.2e-05 s⁻¹; in [8], under 4e-05 s⁻¹. The “IC50, rat NGF-dependent survival of mouse E13.5 trigeminal neurons (1.5 pM NGF)” value in experiment [3] is under 1.3 pM. In addition, the results for the “IC50, rat NGF-dependent survival of mouse E13.5 trigeminal neurons (15 pM NGF)” value in experiment [3] and in experiment [7] were under 8.3 pM and about 31.6 pM, respectively. Also, the “IC50, human NGF-dependent survival of mouse E13.5 trigeminal neurons (1.5 pM NGF)” value in [4] is under 1.2 pM. Also, in experiment [4], the “IC50, human NGF-dependent survival of mouse E13.5 trigeminal neurons (15 pM NGF)” value was under 21 pM. Also, in [5], the “fold higher binding affinity than parent mouse antibody 911” value was about 50 fold. Moreover, in experiment [6], the “IC50 (read off the curve), NGF-dependent survival of E13.5 mouse trigeminal neurons (0.4 ng/ml human NGF, 48 h)” value was about 0.02 nM binding sites. In addition, the Kd was at most 0.07 nM in [8] and 0.3 nM in experiment [9]. In experiment [8], the kon was found to be 600000 M⁻¹ s⁻¹.
